This note sets out measurements from publication PMC9249324.

What all share (experiment): MST
The target of assay [1] is MBP-Mpp83Aa1 (native) (Bacillus thuringiensis).
The target in assay [2] is MBP-Mpp83Aa1 modified with ABP5 at AA70-76 (Bacillus thuringiensis).
In assay [3] the target is MBP-Mpp83Aa1 modified with ABP5 at AA224-230 (Bacillus thuringiensis).
Assay [4] has as its target MBP-Mpp83Aa1 modified with ABP5 at AA172-178 (Bacillus thuringiensis).

Usually Kd stands for a measure of binding affinity in units of concentration. For the substance “Recombinant N. viridula aminopeptidase N (enzyme)”, the Kd in assay [1] stood at 139 nM; in assay [2], 123 nM; in assay [3], 187 nM; in assay [4] it was 4.98 nM.
